A word on the EC50: it is the concentration at which the effect is half-maximal. The term EC50 (read off the curve) denotes the midpoint of the concentration-response curve. A higher EC50 (read off the curve) goes with a need for much substance. In general, IC50 refers to the concentration that inhibits the measured activity by half.

Test [1] concerns the target T1, recombinant human VISTA-Fc protein (R&D #7126-B7) (human, UniProt Q9H7M9 33-194).
T1 construct: Bought protein; also called Fc-tagged human VISTA; not shown: Fc part of a bought fusion protein
T1 sequence: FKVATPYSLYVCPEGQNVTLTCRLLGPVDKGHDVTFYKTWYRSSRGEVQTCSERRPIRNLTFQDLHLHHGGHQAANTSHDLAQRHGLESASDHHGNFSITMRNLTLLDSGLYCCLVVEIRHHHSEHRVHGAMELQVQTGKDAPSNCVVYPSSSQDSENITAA
In words: ELISA, VSIG3-Fc on plate-bound human VISTA-Fc. In general terms: An ELISA detects its analyte on a solid surface through an enzyme-linked reagent.

In test [2] the target is T2, HIS-tagged human VISTA (human, UniProt Q9H7M9 33-194).
T2 construct: Residues 33-194 are stated only for the protein used in HDXMS (Sino Biological #13482-H08H); also called human VISTA-HIS; not shown: HIS tag
T2 sequence: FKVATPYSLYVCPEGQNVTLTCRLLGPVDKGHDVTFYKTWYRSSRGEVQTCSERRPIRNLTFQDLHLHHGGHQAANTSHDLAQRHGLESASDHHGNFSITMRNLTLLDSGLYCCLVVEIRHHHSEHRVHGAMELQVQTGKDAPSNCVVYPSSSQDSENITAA
In words: BLI (Octet) epitope binning: human VISTA-HIS on anti-Penta-HIS sensor, antibody at 400 nM (concentration from paragraph 696). On the technique in general: In BLI a coated tip is dipped into the sample, and binding shifts an interference pattern.

The target of another test is B7H1/PDL-1 (human, UniProt Q9NZQ7 19-239, limits assumed). The experiment in a line: ELISA: plate coated with the named human antigen, 4M2-C12-mIgG2a titrated, absorbance 450 nm.
The target in the next test is T3, B7H3 (human, UniProt Q5ZPR3 29-461, limits assumed).
T3 construct: also called CD276
T3 sequence (looked up): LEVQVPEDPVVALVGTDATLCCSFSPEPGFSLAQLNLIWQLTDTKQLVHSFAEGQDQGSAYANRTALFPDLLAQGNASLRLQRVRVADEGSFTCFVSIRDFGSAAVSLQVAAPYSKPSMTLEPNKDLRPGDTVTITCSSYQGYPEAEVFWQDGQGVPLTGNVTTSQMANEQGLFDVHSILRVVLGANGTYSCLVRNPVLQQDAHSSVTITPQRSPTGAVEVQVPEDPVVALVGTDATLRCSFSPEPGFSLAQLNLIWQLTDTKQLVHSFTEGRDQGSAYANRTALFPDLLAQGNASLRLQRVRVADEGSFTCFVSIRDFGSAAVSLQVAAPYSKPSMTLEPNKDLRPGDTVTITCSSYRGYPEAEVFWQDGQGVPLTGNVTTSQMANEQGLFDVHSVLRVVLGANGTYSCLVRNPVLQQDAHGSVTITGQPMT
Described as above.

Another test deals with T4, B7H4 (human, UniProt Q7Z7D3 29-258, limits assumed).
T4 construct: also called VTCN1
T4 sequence (looked up): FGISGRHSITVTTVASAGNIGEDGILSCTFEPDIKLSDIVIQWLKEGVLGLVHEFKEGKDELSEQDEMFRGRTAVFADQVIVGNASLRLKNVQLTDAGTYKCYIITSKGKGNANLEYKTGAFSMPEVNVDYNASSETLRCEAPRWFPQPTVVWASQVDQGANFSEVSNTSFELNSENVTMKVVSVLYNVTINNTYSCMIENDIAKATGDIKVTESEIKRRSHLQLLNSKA
The description is as above.

Another test addresses T5, B7H6 (human, UniProt Q68D85 25-262, limits assumed).
T5 construct: also called NCR3LG1
T5 sequence (looked up): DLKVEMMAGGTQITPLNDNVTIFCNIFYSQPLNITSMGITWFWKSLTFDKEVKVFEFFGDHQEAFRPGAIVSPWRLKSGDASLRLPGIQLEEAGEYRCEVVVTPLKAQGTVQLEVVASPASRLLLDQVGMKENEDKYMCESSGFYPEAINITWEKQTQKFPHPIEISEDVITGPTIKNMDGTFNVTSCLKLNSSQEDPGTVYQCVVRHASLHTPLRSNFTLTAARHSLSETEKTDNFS
Described as above.

The target in a further test is T6, B7H7 (human, UniProt Q9UM44 23-344, limits assumed).
T6 construct: also called HHLA2
T6 sequence (looked up): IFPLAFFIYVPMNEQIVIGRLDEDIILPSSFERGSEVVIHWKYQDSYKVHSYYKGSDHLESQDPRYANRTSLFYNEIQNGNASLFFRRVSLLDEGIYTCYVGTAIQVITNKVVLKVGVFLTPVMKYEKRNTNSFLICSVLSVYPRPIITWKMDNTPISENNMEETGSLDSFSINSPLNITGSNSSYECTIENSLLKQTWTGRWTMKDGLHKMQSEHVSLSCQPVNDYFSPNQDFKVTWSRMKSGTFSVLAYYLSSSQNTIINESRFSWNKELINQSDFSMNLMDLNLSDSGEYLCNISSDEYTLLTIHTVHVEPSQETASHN
The description is as above.

The target in a further test is PD-1 (human, UniProt Q15116 25-167, limits assumed). The test is described as above.
Another test concerns the target T7, CTLA-4 (human, UniProt P16410 36-162, limits assumed).
T7 sequence (looked up): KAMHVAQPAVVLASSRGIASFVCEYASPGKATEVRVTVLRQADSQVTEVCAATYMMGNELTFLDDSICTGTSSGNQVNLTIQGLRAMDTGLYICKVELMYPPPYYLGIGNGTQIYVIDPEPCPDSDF
The description is as above.

Test [3] addresses T2, HIS-tagged human VISTA. In words: ELISA: plate coated with the named human antigen, 4M2-C12-mIgG2a titrated, absorbance 450 nm; tag of the coated VISTA not stated.
Test [4] deals with T1, recombinant human VISTA-Fc protein (R&D …). In words: competition ELISA: plate-bound human VISTA-Fc, competitor LRIG1.HIS at 1 µg/ml. As to the method: For inhibition assay, 384-well plates were coated with 5 μg/ml of human VISTA-Fc recombinant protein (R&D #7126-B7) diluted in PBS for 24 hrs at 4° C. […] Post incubation, plates were washed three times with TBST and incubated with anti-HIS HRP (Abcam #ab1187) antibody for 1 hr at room temperature followed by three further washes. Colorimetric reactions were developed using standard protocol as described for ELISA above.

Test [5] shares this target. The experiment in a line: competition ELISA: plate-bound human VISTA-Fc, competitor biotinylated VSIG3-Fc at 24 nM. On the procedure: For the inhibition assay, 384-well plates were coated with 2 μg/ml of human VISTA-Fc recombinant protein (R&D #7126-B7) diluted in PBS for 24 hrs at 4° C. […] Post incubation, plates were washed three times with TBST and incubated with streptavidin HRP (R&D #DY998) antibody for 1 hr at room temperature followed by three further washes. Colorimetric reactions were developed using standard protocol as described for ELISA above.

B1: recombinant human VSIG3-Fc (Fc fusion, UniProt Q5DX21 23-241, looked up)
chain: LEVSESPGSIQVARGQPAVLPCTFTTSAALINLNVIWMVTPLSNANQPEQVILYQGGQMFDGAPRFHGRVGFTGTMPATNVSIFINNTQLSDTGTYQCLVNNLPDIGGRNIGVTGLTVLVPPSAPHCQIQGSQDIGSDVILLCSSEEGIPRPTYLWEKLDNTLKLPPTATQDQVQGTVTIRNISALSSGLYQCVASNAIGTSTCLLDLQVISPQPRNIG
modifications: biotinylated in the inhibition ELISA (sites not given)
notes: Bought protein; also called VSIG3-Fc (R&D #9229-VS); not shown: Fc part of a bought fusion protein
On to B1, for which the EC50 in test [1] was determined as 24 nM.

B2: IGN175A (antibody, human IgG1, kappa, V domains shown)
VH: QVQLQQSGAELMKPGASVKISCKATGYTFSTHWIEWVKQRPGHGLEWIGEILPGSGSTSYNEKFKGKATFTADTSSNTAYMQLSSLTSEDSAVYYCARWLLYYYAMDYWGQGTSVTVSS
VL: DVLMTQTPLSLPVSLGDQASISCRSSQSIVHSNGNTYLEWYLQKPGQSPKLLIYKLSNRFSGVPDRFSGSGSGTDFTLKISRVEAEDLGVYYCFQGSHFPYTFGGGTKLEIKR
Regarding B2, the binding result with HIS-tagged human VISTA [2] is “binds”.

B3: 4M2-C12-mIgG2a (antibody, V domains shown)
VH: EVKLVESGPGLVKPSQSLSLTCTVTGYSITSDYAWNWIRQFPGNKLEWMGYITYSGNISYNPSLRSRISITRDTSKNQFFLQLNSVTPEDTATYSCARSLYYPWYFDVWGAGTTVTVSS
VL: DIVITQTPAILSTSPGEKVTMTCRASSSVGYIHWYQQKPGSSPKPWIYATSNLASGVPARFSGSGSGTSNSLTITRVEAEDAATYYCQQWSSYPPITFGGGTKLEVKR
notes: also called V4P mIgG2a
On to B3, for which the binding result in the test with B7H1/PDL-1, with B7H3, with B7H4, in the test with B7H6, with B7H7 and with PD-1 was “no binding (tested: about 2e-8 M)” throughout. Also, the binding result in the test with CTLA-4 is “no binding (tested: about 2e-8 M)”. For the same molecule, the “EC50 (read off the curve)” value with HIS-tagged human VISTA [3] was approximately 0.2 nM.

B4: V4-C26 hIgG4 (antibody)
heavy: not shown
light: EIVLTQSPATLSLSPGERATLSCRASSSVGYIHWYQQKPGQAPRPIIYTTSNRATGIPARFSGSGSGTDNTLTISSLEPEDSAVYYCQQWSSYPPITFGGGTKLEVKRTVAAPSVFIFPPSDEQLKSGTASVVCLLNNFYPREAKVQWKVDNALQSGNSQESVTEQDSKDSTYSLSSTLTLSKADYEKHKVYACEVTHQGLSSPVTKSFNRGEC
notes: Human IgG4 (S228P) / kappa; APC-conjugated in the flow cytometry assays; also called HMBD-002; V4-C26 hIgG4(S228P)
With B4, the figures for the IC50 in test [4] and in [5] were 3.4 nM and 0.673 nM, respectively.

Source of the values: patent US20260098093A1 (HUMMINGBIRD BIOSCIENCE PTE, published 2026).
